Reference: article PMC9440123, “Rtt105 regulates RPA function by configurationally stapling the flexible domains” (Nature Communications, 2022)

Legend:
RPA (RPA70/RPA32/RPA14) [1] = target: T1, RPA (RPA70/RPA32/RPA14) (Saccharomyces cerevisiae, UniProt P22336;P26754;P26755 1-621;1-273;1-122); test: fluorescence anisotropy; no Rtt105; 5 mM MgCl2; stoichiometric, apparent Kd; EMSA: 25 mM Tris-Cl pH 7.5, 200 mM NaCl, 5 mM MgCl2, 5% glycerol, 0.05% Tween-20, 25 C; anisotropy/FRET: 30 mM HEPES pH 7.8, 100 mM KCl, 6% glycerol, 5 mM MgCl2, 1 mM bME, 23 C (stopped flow 25 C); conditions: protein: recombinant; copies: 1;1;1
[2] = target: T2, RPA (RPA70/RPA32/RPA14);Rtt105 (Saccharomyces cerevisiae;Saccharomyces …, UniProt P22336;P26754;P26755;P40063 1-621;1-273;1-122;1-208, |); test: fluorescence anisotropy; Rtt105 1:1; 5 mM MgCl2; stoichiometric, apparent Kd; EMSA: 25 mM Tris-Cl pH 7.5, 200 mM NaCl, 5 mM MgCl2, 5% glycerol, 0.05% Tween-20, 25 C; anisotropy/FRET: 30 mM HEPES pH 7.8, 100 mM KCl, 6% glycerol, 5 mM MgCl2, 1 mM bME, 23 C (stopped flow 25 C); conditions: protein: recombinant;recombinant; tags: ;; copies: 1;1;1;1
[3] = target: T3, RPA-DBD-D-Cy3;Rtt105-Cy5 (C13S) (Saccharomyces cerevisiae;Saccharomyces …, UniProt P22336;P26754;P26755;P40063 1-621;1-273;1-122;1-208, |C13S); test: FRET titration; ssDNA-induced remodeling of preformed RPA-Rtt105 (200 nM each); EMSA: 25 mM Tris-Cl pH 7.5, 200 mM NaCl, 5 mM MgCl2, 5% glycerol, 0.05% Tween-20, 25 C; anisotropy/FRET: 30 mM HEPES pH 7.8, 100 mM KCl, 6% glycerol, 5 mM MgCl2, 1 mM bME, 23 C (stopped flow 25 C); conditions: protein: recombinant;recombinant; tags: Cy3 on DBD-D via 4AZP;Cy5 on Cys12; copies: 1;1;1;1
[4] = target: T2, RPA (RPA70/RPA32/RPA14);Rtt105; test: SEC; [RPA]2-(dT)70 without Rtt105, plus Rtt105-RPA-(dT)70; EMSA: 25 mM Tris-Cl pH 7.5, 200 mM NaCl, 5 mM MgCl2, 5% glycerol, 0.05% Tween-20, 25 C; anisotropy/FRET: 30 mM HEPES pH 7.8, 100 mM KCl, 6% glycerol, 5 mM MgCl2, 1 mM bME, 23 C (stopped flow 25 C); conditions: protein: recombinant;recombinant; tags: ;; copies: 1;1;1;1
RPA (RPA70/RPA32/RPA14) [5] = target: T1, RPA (RPA70/RPA32/RPA14); test: fluorescence anisotropy; ~2 RPA per DNA; EMSA: 25 mM Tris-Cl pH 7.5, 200 mM NaCl, 5 mM MgCl2, 5% glycerol, 0.05% Tween-20, 25 C; anisotropy/FRET: 30 mM HEPES pH 7.8, 100 mM KCl, 6% glycerol, 5 mM MgCl2, 1 mM bME, 23 C (stopped flow 25 C); conditions: protein: recombinant; copies: 1;1;1
[6] = target: T3, RPA-DBD-D-Cy3;Rtt105-Cy5 (C13S); test: FRET titration; ssDNA-induced Rtt105 release from preformed RPA-Rtt105 (200 nM each); EMSA: 25 mM Tris-Cl pH 7.5, 200 mM NaCl, 5 mM MgCl2, 5% glycerol, 0.05% Tween-20, 25 C; anisotropy/FRET: 30 mM HEPES pH 7.8, 100 mM KCl, 6% glycerol, 5 mM MgCl2, 1 mM bME, 23 C (stopped flow 25 C); conditions: protein: recombinant;recombinant; tags: Cy3 on DBD-D via 4AZP;Cy5 on Cys12; copies: 1;1;1;1

T1 sequence (P22336 whole entry, chain 1 of 3): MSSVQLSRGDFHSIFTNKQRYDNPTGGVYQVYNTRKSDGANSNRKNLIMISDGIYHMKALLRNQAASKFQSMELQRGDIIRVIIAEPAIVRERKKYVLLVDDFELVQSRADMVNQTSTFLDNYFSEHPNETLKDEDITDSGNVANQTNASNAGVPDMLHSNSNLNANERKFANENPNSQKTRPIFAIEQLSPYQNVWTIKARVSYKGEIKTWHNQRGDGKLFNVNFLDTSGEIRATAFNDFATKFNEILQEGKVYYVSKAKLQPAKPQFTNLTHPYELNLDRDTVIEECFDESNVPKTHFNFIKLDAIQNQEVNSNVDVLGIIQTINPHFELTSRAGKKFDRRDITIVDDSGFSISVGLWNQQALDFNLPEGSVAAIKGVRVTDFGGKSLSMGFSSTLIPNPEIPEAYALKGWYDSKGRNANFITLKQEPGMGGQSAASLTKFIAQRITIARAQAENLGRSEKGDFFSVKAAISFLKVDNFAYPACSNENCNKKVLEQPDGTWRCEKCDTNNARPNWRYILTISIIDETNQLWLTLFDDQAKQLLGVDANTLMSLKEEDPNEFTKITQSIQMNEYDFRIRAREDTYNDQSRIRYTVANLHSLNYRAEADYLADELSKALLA
T1 sequence (P26754 whole entry, chain 2 of 3): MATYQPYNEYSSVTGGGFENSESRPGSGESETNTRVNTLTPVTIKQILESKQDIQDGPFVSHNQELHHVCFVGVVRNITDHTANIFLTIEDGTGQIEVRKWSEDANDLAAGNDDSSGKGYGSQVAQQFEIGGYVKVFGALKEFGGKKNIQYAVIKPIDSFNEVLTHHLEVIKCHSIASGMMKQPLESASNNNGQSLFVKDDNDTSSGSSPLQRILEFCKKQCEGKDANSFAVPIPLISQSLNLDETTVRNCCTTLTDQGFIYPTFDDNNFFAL
T1 sequence (P26755 whole entry, chain 3 of 3): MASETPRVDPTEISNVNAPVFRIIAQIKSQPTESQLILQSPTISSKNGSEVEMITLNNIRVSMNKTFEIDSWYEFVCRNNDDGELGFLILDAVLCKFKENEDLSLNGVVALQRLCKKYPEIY
T2 sequence (P22336 whole entry, chain 1 of 4): as the sequence (P22336 whole entry, chain 1 of 3) above
T2 sequence (P26754 whole entry, chain 2 of 4): as the sequence (P26754 whole entry, chain 2 of 3) above
T2 sequence (P26755 whole entry, chain 3 of 4): as the sequence (P26755 whole entry, chain 3 of 3) above
T2 sequence (P40063 whole entry, chain 4 of 4): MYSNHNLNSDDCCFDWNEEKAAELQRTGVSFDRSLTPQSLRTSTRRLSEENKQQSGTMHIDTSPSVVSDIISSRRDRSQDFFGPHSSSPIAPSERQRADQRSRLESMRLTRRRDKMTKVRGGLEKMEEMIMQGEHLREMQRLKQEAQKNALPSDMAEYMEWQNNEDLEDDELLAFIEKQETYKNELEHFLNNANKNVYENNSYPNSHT
T3 sequence (P22336 whole entry, chain 1 of 4): as the sequence (P22336 whole entry, chain 1 of 3) above
T3 sequence (P26754 whole entry, chain 2 of 4): as the sequence (P26754 whole entry, chain 2 of 3) above
T3 sequence (P26755 whole entry, chain 3 of 4): as the sequence (P26755 whole entry, chain 3 of 3) above
T3 sequence (P40063 whole entry C13S, chain 4 of 4): as the sequence (P40063 whole entry, chain 4 of 4) above, with C13S counted along it

TTTTTTTTTTTTTTTTTTTTTTTTTTTTTTTTTTT (ssDNA) [FAM-(dT)35]
Kd (RPA (RPA70/RPA32/RPA14) [1]): 4 ± 1.3 nM
Kd [2]: 2.4 ± 1.2 nM

TTTTTTTTTTTTTTTTTTTTTTTTTTTTTTTTTTT (ssDNA) [(dT)35]
apparent K (half saturation) [3]: 130 ± 10.5 nM

B1: (dT)70 (ssDNA)
DNA: TTTTTTTTTTTTTTTTTTTTTTTTTTTTTTTTTTTTTTTTTTTTTTTTTTTTTTTTTTTTTTTTTTTTTT
binding result [4]: binds
binding result (RPA (RPA70/RPA32/RPA14) [5]): binds
apparent K (half saturation) [6]: 42.8 ± 0.37 nM
